Laboratory results reported in PMC10883266, “TTLL12 is required for primary ciliary axoneme formation in polarized epithelial cells” (EMBO Reports, 2023).

T1: recombinant GST-Rab19 (UniProt A4D1S5 1-217)
T1 construct: small GTPase Rab19; loaded with GDP or GMP-PNP before the assay; Loaded with GDP or with GMP-PNP (non-hydrolyzable GTP analog); also called GST-Rab19 (GDP); GST-Rab19 (GMP-PNP); source: E. coli BL21 Codon Plus, purified as previously described (Jewett et al, 2021); not shown: GST, N-terminal, kept
T1 sequence (looked up): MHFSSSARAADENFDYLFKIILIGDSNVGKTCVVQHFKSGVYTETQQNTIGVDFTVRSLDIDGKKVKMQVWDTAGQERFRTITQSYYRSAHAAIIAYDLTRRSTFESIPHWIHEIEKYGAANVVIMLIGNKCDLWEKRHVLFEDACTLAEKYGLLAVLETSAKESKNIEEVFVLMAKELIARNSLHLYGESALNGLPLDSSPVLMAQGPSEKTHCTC

B1: recombinant 6His-TTLL12 (natural protein, human, UniProt Q14166 1-644, looked up)
chain: MEAERGPERRPAERSSPGQTPEEGAQALAEFAALHGPALRASGVPERYWGRLLHKLEHEVFDAGEVFGIMQVEEVEEEEDEAAREVRKQQPNPGNELCYKVIVTRESGLQAAHPNSIFLIDHAWTCRVEHARQQLQQVPGLLHRMANLMGIEFHGELPSTEAVALVLEEMWKFNQTYQLAHGTAEEKMPVWYIMDEFGSRIQHADVPSFATAPFFYMPQQVAYTLLWPLRDLDTGEEVTRDFAYGETDPLIRKCMLLPWAPTDMLDLSSCTPEPPAEHYQAILEENKEKLPLDINPVVHPHGHIFKVYTDVQQVASSLTHPRFTLTQSEADADILFNFSHFKDYRKLSQERPGVLLNQFPCENLLTVKDCLASIARRAGGPEGPPWLPRTFNLRTELPQFVSYFQQRERWGEDNHWICKPWNLARSLDTHVTKSLHSIIRHRESTPKVVSKYIESPVLFLREDVGKVKFDIRYIVLLRSVRPLRLFVYDVFWLRFSNRAFALNDLDDYEKHFTVMNYDPDVVLKQVHCEEFIPEFEKQYPEFPWTDVQAEIFRAFTELFQVACAKPPPLGLCDYPSSRAMYAVDLMLKWDNGPDGRRVMQPQILEVNFNPDCERACRYHPTFFNDVFSTLFLDQPGGCHVTCLV
notes: Tubulin Tyrosine Ligase-Like 12 (TTLL12), human cDNA (pLVX304-hTTLL12); the form rests on the printed cloning primers; also called Tubulin Tyrosine Ligase-Like 12; source: Sf9 cells (baculovirus, pFastBac HTA), purified (nickel beads, dialysed into PBS with 1 mM DTT); not shown: 6His, …

Experiments:
[1] = target: recombinant 6His-TTLL12 (human) (UniProt Q14166); experiment: pull-down; 10 μg (0.18 μM) untagged porcine brain tubulin alone or with 10 μg 6His-TTLL12 in 20 mM HEPES pH 7.4, 150 mM KCl, overnight at 4 °C to prevent polymerization; Ni beads; washes with 300 mM KCl, 0.1% Triton X-100; Coomassie blue staining
[2] = target: T1, recombinant GST-Rab19; experiment: pull-down; 10 μg GST-Rab19 loaded with GDP or GMP-PNP + 10 μg 6His-TTLL12 in 20 mM HEPES pH 7.4, 150 mM NaCl, 1% BSA, 1 h room temperature; glutathione beads; washes with 300 mM NaCl, 0.1% Triton X-100; Coomassie blue staining; details: both partners purified

| Molecule | fold increase in tubulin co-precipitation with Ni beads over tubulin alone [1] [fold] | fold increase in TTLL12 binding over a GST-only control [2] [fold] |
| --- | --- | --- |
| untagged purified porcine brain tubulin (α/β-tubulin heterodimer) (from UniProt P02554 1-445) (complex) | 3 | – |
| B1 | – | ~5 |
